Data from article PMC9788556, “Nanobodies against Pfs230 block Plasmodium falciparum transmission” (Biochemical Journal, 2022).
Changes are numbered by the printed parent chain.

B1: nanobody F10 (VHH)
VHH: QVQLQESGGGLVQAGGSLRLSCAASGRTFSDYFMGWFRQAPGKEREFVAAVSWSGGSTYYADSVKGRFTISRDNAKNTVFLQMNSLKPEDTAVYYCAGGGSYYPMSPYDGMDYWGKGTQVTVSS
notes: From a phage display library (pMES4) of an alpaca immunized with Pfs230 D1D2; also called anti-Pfs230 F10; source: E. coli WK6, periplasmic extract, purified (HisTrap)
B2: nanobody F5 (VHH)
VHH: QVQLQESGGGLVQPGGSLRLSCAASGFTLDRYAIGWFRQAPGKEREGVSCISSSDGSTYYADSVKGRFTISRDNAKNTVYLQMNSLKPEDTAVYYCARDHGPCTVLADILYDYGMDYWGKGTQVTVSS
notes: From a phage display library (pMES4) of an alpaca immunized with Pfs230 D1D2; also called anti-Pfs230 F5; source: E. coli WK6, periplasmic extract, purified (HisTrap)
B3: nanobody A10 (VHH)
VHH: QVQLQESGGGLVQAGSSLRLSCAASGGTFSNYAMGWFRQAPGKEREFVAAIGWSGGTYYTDSVEGRFTISRDNAKNTVYLQMNSLKPEDTAVYYCAAKRSGSSWSERGYDYWGQGTQVTVSS
notes: From a phage display library (pMES4) of an alpaca immunized with Pfs230 D1D2; source: E. coli WK6, periplasmic extract, purified (HisTrap)
B4: nanobody G2 (VHH)
VHH: QVQLQESGGGLVQAGGSLRLSCAASGRTFSNYFMGWFRQAPGKEREFVAAVSWSGGSTYYADSVKGRLTISRDNAKNTVYLQMNSLKPEDTAVYYCAAGERYFPMEPRRGYDYWGQGTQVTVSS
notes: as for B3
B5: nanobody G5 (VHH)
VHH: QVQLQESGGGLVQAGGSLRLSCAASGRTFNDYAMYWFRQAPGKEREFVADITWSGSSTYYADSVKGRFTISRDNAKNTVFLQMNSLKPEDTALYYCAADSRYYGIGIGTPRYWGQGTQVTVSS
notes: as for B3
B6: nanobody D6 (VHH)
VHH: B1 VHH with G16D, D31S, V51I, A75V, F80Y, K87E, T91A, Y108R, D109N
notes: as for B3
B7: nanobody E1 (VHH)
VHH: QVQLQESGGGLVQPGGSLRLSCAASGRTFSSYFMGWFRQAPGKGRVFVASISWSGGSTYYADSVKGRFTISRDNAENTVYLQMNSLKPEDTAVYYCAAGTRATPLDWASGMDYWGKGTQVTVSS
notes: as for B3
B8: nanobody D11 (VHH)
VHH: B3 VHH with G27R, N31S, K75E, R99A
notes: as for B3
B9: nanobody A11 (VHH)
VHH: QVQLQESGGGLVQPGESLRLSCAASGRTSSSYAMGWFRQAPGKEREFVASISWSGGSTYYADSVKGRFTLSRDNAKNTVYLQMNSLKPEDTAVYYCAADGIFYSDYPLSVDDFHSWGQGTQVTVSS
notes: as for B3
B10: nanobody B4 (VHH)
VHH: QVQLQESGGGLVQPGGSLRLSCAASGFTLDYYGIGWFRQAPGKEREGVSCISSSDGSTYYADSVKGRFTISRDNAKNTVYLQMNSLKPEDTAVYYCAADLTGIGCTTAQAMGVIGDFGDFGSWGQGTQVTVSS
notes: as for B3
B11: nanobody E11 (VHH)
VHH: B10 VHH with L29S, S49A, F68S, T101S, G112D
notes: as for B3
B12: nanobody D1 (VHH)
VHH: QVQLQESGGGLVQAGDSLRLSCTASGRTFSNHAMGWFRQAPGKEREIVAVIFGTGRNSWYVDSVKGRFTISRDNAKNTVALQMNRLKPEDTAVYYCASGRTWYSGSSMAEYDYWGQGTQVTVSS
notes: Not to be confused with the D1 domain of Pfs230; From a phage display library (pMES4) of an alpaca immunized with Pfs230 D1D2; also called D1 (nanobody); source: E. coli WK6, periplasmic extract, purified (HisTrap)
B13: Pfs230 D1D2 (aa 587–889) (domain or fragment, Plasmodium falciparum, UniProt P68874 587-889, looked up)
chain: TNKEYVCDFTDQLKPTESGPKVKKCEVKVNEPLIKVKIICPLKGSVEKLYDNIEYVPKKSPYVVLTKEETKLKEKLLSKLIYGLLISPTVNEKENNFKEGVIEFTLPPVVHKATVFYFICDNSKTEDDNKKGNRGIVEVYVEPYGNKINGCAFLDEDEEEEKYGNQIEEDEHNEKIKMKTFFTQNIYKKNNIYPCYMKLYSGDIGGILFPKNIKSTTCFEEMIPYNKEIKWNKENKSLGNLVNNSVVYNKEMNAKYFNVQYVHIPTSYKDTLNLFCSIILKEEESNLISTSYLVYVSINEELN
notes: used untagged; also called first two 6-cys domains of Pfs230; source: Sf21 insect cells (baculovirus), secreted, purified (Ni-NTA, TEV cleavage, SEC); not shown: His8, N-terminal, cleaved
B14: Pfs230 Pro-D1D2 (aa 532–889) (domain or fragment, Plasmodium falciparum, UniProt P68874 532-889, looked up)
chain: DGENVIKIIRSVLQSGALPSVGVDELDKIDLSYETTESGDTAVSEDSYDKYASNNTNKEYVCDFTDQLKPTESGPKVKKCEVKVNEPLIKVKIICPLKGSVEKLYDNIEYVPKKSPYVVLTKEETKLKEKLLSKLIYGLLISPTVNEKENNFKEGVIEFTLPPVVHKATVFYFICDNSKTEDDNKKGNRGIVEVYVEPYGNKINGCAFLDEDEEEEKYGNQIEEDEHNEKIKMKTFFTQNIYKKNNIYPCYMKLYSGDIGGILFPKNIKSTTCFEEMIPYNKEIKWNKENKSLGNLVNNSVVYNKEMNAKYFNVQYVHIPTSYKDTLNLFCSIILKEEESNLISTSYLVYVSINEELN
notes: Pfs230 of Plasmodium falciparum (PF3D7_0209000), amino acids 532-889: a part of the prodomain and 6-cys domains D1 and D2; used untagged; source: Sf21 insect cells (baculovirus), secreted, purified (Ni-NTA, TEV cleavage, SEC); not shown: His8, N-terminal, cleaved

biological target: B14; assay: SEC; size shift assay: Pfs230 Pro-D1D2 or Pfs230 D1D2 incubated with nanobodies or LMIV230-01 at different molar ratios for 1 h on ice; SD200 3.2/300 column, 20 mM HEPES pH 7.5, 150 mM NaCl; settings: both partners purified

Binder	stoichiometry N
B1	1
B2	1

biological target: B13; assay: far-Western, overlay or dot blot; western blot: 250 ng untagged Pfs230 D1D2 separated on a 4–12% Bis-Tris gel in non-reducing conditions, on PVDF, probed with 0.5 µg/ml nanobody overnight at 4°C; settings: both partners purified

Binder	binding result
B3	binds
B4	binds
B5	binds

biological target: T1, Pfs230 D1 (aa 587–731) (Plasmodium falciparum 3D7, UniProt P68874); assay: BLI; Octet RED96e; monomeric nanobodies (5 µg/ml) on Ni-NTA sensor tips; untagged Pfs230 D1D2 6 to 200 nM or untagged Pfs230 D1 0.8 to 100 nM; PBS pH 7.4, 0.1% BSA, 0.05% TWEEN-20, 25°C; global 1 : 1 fit; settings: both partners purified
T1 construct: used untagged; also called first 6-cys domain of Pfs230; source: Sf21 insect cells (baculovirus), secreted, purified (Ni-NTA, TEV cleavage, SEC); not shown: His8, N-terminal, cleaved

Binder	binding result
B6	binds
B7	binds
B3	binds
B8	binds
B9	binds
B4	binds
B10	binds
B11	binds
B12	binds
B5	binds

biological target: B13; assay: as above; settings: both partners purified

Binder	binding result
B7	binds
B8	binds
B10	binds
B11	binds

biological target: B13; assay: far-Western, overlay or dot blot; western blot: 250 ng untagged Pfs230 D1D2 separated on a 4–12% Bis-Tris gel in reducing conditions, on PVDF, probed with 0.5 µg/ml nanobody overnight at 4°C; settings: both partners purified

Binder	binding result
B6	binds
B9	binds

biological target: T2, F10-Fc (alpaca); assay: BLI; Octet RED96e; nanobody-Fc or LMIV230-01 (5 µg/ml) on anti-hIgG Fc capture sensor tips; untagged Pfs230 D1D2 or Pfs230 Pro-D1D2 3 to 100 nM or 94–3000 nM; PBS pH 7.4, 0.1% BSA, 0.05% TWEEN-20, 25°C; global 1 : 1 fit; settings: both partners purified
T2 construct: as the VHH of m14 (nanobody F10); also called F10 nanobody-Fc fusion; source: HEK293, transient transfection, purified from supernatant (HiTrap PrismA, SEC)

Binder	Kd [nM]
B13	0.13

biological target: T3, F5-Fc (alpaca); assay: as above; settings: both partners purified
T3 construct: as the VHH of m13 (nanobody F5); also called F5 nanobody-Fc fusion; source: HEK293, transient transfection, purified from supernatant (HiTrap PrismA, SEC)

Binder	Kd [nM]
B14	118
B13	0.57
